Results taken from PMC2988979 (Nature structural & molecular biology, 2010).

Target: recombinant HAT1 holoenzyme (HAT1 and RbAp46) (UniProt O14929;Q16576)
Assay: pull-down

recombinant HAT1 holoenzyme (HAT1 and RbAp46), sequence (O14929 whole entry, chain 1 of 2): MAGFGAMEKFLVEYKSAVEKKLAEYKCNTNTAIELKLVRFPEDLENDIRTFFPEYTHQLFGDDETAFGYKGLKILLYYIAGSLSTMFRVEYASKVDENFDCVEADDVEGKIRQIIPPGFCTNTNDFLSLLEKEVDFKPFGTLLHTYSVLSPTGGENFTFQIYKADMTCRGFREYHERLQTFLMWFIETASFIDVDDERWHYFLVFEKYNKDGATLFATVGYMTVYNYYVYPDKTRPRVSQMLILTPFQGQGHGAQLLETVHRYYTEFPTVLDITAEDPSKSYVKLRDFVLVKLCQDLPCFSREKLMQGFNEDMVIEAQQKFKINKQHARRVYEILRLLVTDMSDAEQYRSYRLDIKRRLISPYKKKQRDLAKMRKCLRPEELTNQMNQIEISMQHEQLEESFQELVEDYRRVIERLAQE
recombinant HAT1 holoenzyme (HAT1 and RbAp46), sequence (Q16576 whole entry, chain 2 of 2): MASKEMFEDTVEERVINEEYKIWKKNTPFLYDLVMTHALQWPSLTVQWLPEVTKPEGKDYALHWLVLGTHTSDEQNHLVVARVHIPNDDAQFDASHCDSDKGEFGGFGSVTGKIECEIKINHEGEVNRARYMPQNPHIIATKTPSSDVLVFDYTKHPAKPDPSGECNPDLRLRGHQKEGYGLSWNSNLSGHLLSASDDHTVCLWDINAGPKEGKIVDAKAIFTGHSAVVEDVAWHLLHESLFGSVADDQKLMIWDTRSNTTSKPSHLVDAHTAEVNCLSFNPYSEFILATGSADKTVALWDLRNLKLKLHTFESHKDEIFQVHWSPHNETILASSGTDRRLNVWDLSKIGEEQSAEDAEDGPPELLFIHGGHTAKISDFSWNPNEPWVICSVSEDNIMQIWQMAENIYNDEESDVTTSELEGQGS

binding result: binds
B1: GST-tagged ASF1B (natural protein)
chain: MAKVSVLNVAVLENPSPFHSPFRFEISFECSEALADDLEWKIIYVGSAESEEFDQILDSVLVGPVPAGRHMFVFQADAPNPSLIPETDAVGVTVVLITCTYHGQEFIRVGYYVNNEYLNPELRENPPMKPDFSQLQRNILASNPRVTRFHINWDNNMDRLEAIETQDPSLGCGLPLNCTPIKGLGLPGCIPGLLPENSMDCI
